# In PMC8857485, “Prostate secretory protein 94 inhibits sterol binding and export by the mammalian CAP protein CRISP2 in a calcium-sensitive manner” (The Journal of Biological Chemistry, 2022):
# B1: CRISP2 (cysteine-rich secretory protein 2), C-terminal polyhistidine tag [modified: RED-tris-NTA fluorescent label on the His tag; RED-tris-NTA fluorescent label on the His tag] [human] / prostate secretory protein of … (parent)
# chain 1: KDPAFTALLTTQLQVQREIVNKHNELRKAVSPPASNMLKMEWSREVTTNAQRWANKCTLQHSDPEDRKTSTRCGENLYMSSDPTSWSSAIQSWYDEILDFVYGVGPKSPNAVVGHYTQLVWYSTYQVGCGIAYCPNQDSLKYYYVCQYCPAGNNMNRKNTPYQQGTPCAGCPDDCDKGLCTNSCQYQDLLSNCDSLKNTAGCEHELLKEKCKATCLCENKIY
# chain 2: SCYFIPNEGVPGDSTRKCMDLKGNKHPINSEWQTDNCETCTCYETEISCCTLVSTPVGYDKDNCQRIFKKEDCKYIVVEKKDPKKTCSVSEWII
# Variants of: B1
# Test: microscale thermophoresis
# Conditions: with prostate secretory protein of 94 amino acids (PSP94), measurements in triplicates, PSP94 titrated (x axis PSP94 [nM])
row,Variant,Kd [nM]
1,chain 1 N76P L77G,4
